The results in this text go back to publication doi:10.1101/2025.05.18.654456.

This assay addresses F-actin (actin purified from rabbit white skeletal muscle, polymerised) (rabbit), P68135. Description: co-sedimentation; various concentrations of His-α-actinin in A50 buffer (50 mM HEPES-KOH pH 7.6, 50 mM KCl, 5 mM MgCl2, 1 mM EGTA) mixed with 10 μM G-actin on ice, 25°C for 60 min to polymerise actin, centrifuged at 100,000 ×g for 10 min at 25°C; supernatant and pellet on SDS-PAGE, Coomassie; model fitting; apparent dissociation constant. The conditions noted are these: remark: other sources report otherwise.

B1: Recombinant human α-actinin I (6×His-tagged), P12814 1-892 (natural protein)
chain: MDHYDSQQTNDYMQPEEDWDRDLLLDPAWEKQQRKTFTAWCNSHLRKAGTQIENIEEDFRDGLKLMLLLEVISGERLAKPERGKMRVHKISNVNKALDFIASKGVKLVSIGAEEIVDGNVKMTLGMIWTIILRFAIQDISVEETSAKEGLLLWCQRKTAPYKNVNIQNFHISWKDGLGFCALIHRHRPELIDYGKLRKDDPLTNLNTAFDVAEKYLDIPKMLDAEDIVGTARPDEKAIMTYVSSFYHAFSGAQKAETAANRICKVLAVNQENEQLMEDYEKLASDLLEWIRRTIPWLENRVPENTMHAMQQKLEDFRDYRRLHKPPKVQEKCQLEINFNTLQTKLRLSNRPAFMPSEGRMVSDINNAWGCLEQVEKGYEEWLLNEIRRLERLDHLAEKFRQKASIHEAWTDGKEAMLRQKDYETATLSEIKALLKKHEAFESDLAAHQDRVEQIAAIAQELNELDYYDSPSVNARCQKICDQWDNLGALTQKRREALERTEKLLETIDQLYLEYAKRAAPFNNWMEGAMEDLQDTFIVHTIEEIQGLTTAHEQFKATLPDADKERLAILGIHNEVSKIVQTYHVNMAGTNPYTTITPQEINGKWDHVRQLVPRRDQALTEEHARQQHNERLRKQFGAQANVIGPWIQTKMEEIGRISIEMHGTLEDQLSHLRQYEKSIVNYKPKIDQLEGDHQLIQEALIFDNKHTNYTMEHIRVGWEQLLTTIARTINEVENQILTRDAKGISQEQMNEFRASFNHFDRDHSGTLGPEEFKACLISLGYDIGNDPQGEAEFARIMSIVDPNRLGVVTFQAFIDFMSRETADTDTADQVMASFKILAGDKNYITMDELRRELPPDQAEYCIARMAPYTGPDSVPGALDYMSFSTALYGESDL
In the case of B1, the Kd amounted to 1.4 µM.
